# The supplement of paper PMC7125110
# ± gives the standard error. Variants at the floor of the assay were thinned out.
# B1: glmS ribozyme (parent)
# chain: AUAAAAGCGCCAGAACUACAGAAAUGUAGUUGACGAGGAGGAGGUUUAUCGAAUUUUCGGCGGAUGCCUCCAAA
# Experiments:
# Conditions in all cases: with glucosamine-6-phosphate
# glucosamine-6-phosphate [1] = variants of: B1; experiment: self-cleavage kobs at 640 uM GlcN6P; higher = faster cleavage; RNA array
# In short: (§1)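 Sequenced MiSeq chips were the platform: E. coli RNA polymerase transcribed barcoded ribozyme variants on them in situ, and a hybridised Cy3 probe tracked these at 37 °C. After glucosamine-6-phosphate (40 μM to 10 mM) in HEPES/KCl/Mg(OAc)2 buffer was flowed in, tiles were imaged over ~14 h. Signals normalised to baseline and to non-cleaving reference variants were reduced to per-tile medians and fit to one- or two-exponential decays to obtain kobs. kcat and KM were derived through weighted Michaelis–Menten fits across concentrations.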
# glucosamine-6-phosphate [2] = variants of: B1; experiment: self-cleavage kobs at 2500 uM GlcN6P; higher = faster cleavage; RNA array
# In short: as §1
# glucosamine-6-phosphate [3] = variants of: B1; experiment: self-cleavage kobs at 10000 uM GlcN6P; higher = faster cleavage; RNA array
# In short: as §1
Variant,self-cleavage kobs at 640 uM GlcN6P (glucosamine-6-phosphate [1]) [s⁻¹],self-cleavage kobs at 2500 uM GlcN6P (glucosamine-6-phosphate [2]) [s⁻¹],self-cleavage kobs at 10000 uM GlcN6P (glucosamine-6-phosphate [3]) [s⁻¹]
G9U G41A A42U,< 1e-05,< 1e-05,–
A6C C16U G60U,< 1e-05,< 1e-05,–
A14G U31G C50G,0.000132 ± 3.6e-05,–,–
G13C U31A G38U A39U G40C,< 1e-05,–,–
G35U A48C C68A,< 1e-05,–,–
C11U A15G G60U,< 1e-05,–,–
C8A G37U A52G C70G,0.000115 ± 5.1e-05,–,–
C11G C34U U69G,0.000508 ± 0.00017,–,–
C10U G13A U45G U49C,< 1e-05,–,–
C8A G44C U46A,< 1e-05,< 1e-05,–
G40U G44U G62U,< 1e-05,< 1e-05,–
A42U G44C,< 1e-05,< 1e-05,< 1e-05
C8U G9A A15U A39G,< 1e-05,< 1e-05,–
A12U C16G G32A,9.86e-05 ± 2.9e-05,0.000137 ± 4.8e-05,–
G32A A48C U55G G66A,< 1e-05,–,–
G9A G35A A48C C50G,< 1e-05,< 1e-05,–
G26U A42U,6.28e-05 ± 1.6e-05,0.000124 ± 2.5e-05,–
A42U U57G,< 1e-05,< 1e-05,–
A48G A52U G59U,< 1e-05,< 1e-05,–
C16G A36C G51A G59C C61G,< 1e-05,< 1e-05,–
A42C G43U U56A G66U,< 1e-05,–,–
C10G G44U C70U,< 1e-05,–,–

Variant,self-cleavage kobs at 640 uM GlcN6P (glucosamine-6-phosphate [1]) [s⁻¹],self-cleavage kobs at 2500 uM GlcN6P (glucosamine-6-phosphate [2]) [s⁻¹],self-cleavage kobs at 10000 uM GlcN6P (glucosamine-6-phosphate [3]) [s⁻¹]
A39U U55C U65G,0.000491 ± 0.00014,0.00164 ± 0.00045,–
C8G C10U A14G C34A U69G,0.000745 ± 0.00024,< 1e-05,–
A14U C58A C70A,7.42e-05 ± 2.4e-05,–,–
C10G A33C G37A G59U,< 1e-05,< 1e-05,–
C8G G32A A39G U54A,< 1e-05,< 1e-05,–
A33G G41C G63U,< 1e-05,–,< 1e-05
G29U U69A C71G,8.16e-05 ± 3.4e-05,–,–
A53G U54G U55G C61A C70U,0.000595 ± 0.00019,7.21e-05 ± 2.5e-05,–
U55A U57G,2.18e-05 ± 1e-05,2.56e-05 ± 7.4e-06,7.86e-05 ± 1.2e-05
C8A U49G C68G,0.000875 ± 0.00033,–,–
C8A A15G G44A C61U C71A,< 1e-05,< 1e-05,–
G7A G44A U46C A48U,< 1e-05,< 1e-05,–
G7C G43U A53C G66U,< 1e-05,–,–
A6C U46C U47C G59A,< 1e-05,–,–
C11G C50U U57A G60A C67U,0.000609 ± 0.00017,–,–
G37A G40U U55G,6.13e-05 ± 2.5e-05,6.99e-05 ± 1.6e-05,–
A6U C50A U65A U69C,8.83e-05 ± 3.7e-05,–,–
G13U A39G U55G,0.000281 ± 8e-05,0.000683 ± 0.00022,0.0028 ± 0.00059
U31G U49G C67A,4.09e-05 ± 1.4e-05,–,–
G7C A15U G43A A48G C67A,< 1e-05,< 1e-05,–
G59C A64G U69G,< 1e-05,–,–
G62U G63U G66C,< 1e-05,< 1e-05,–

Variant,self-cleavage kobs at 640 uM GlcN6P (glucosamine-6-phosphate [1]) [s⁻¹],self-cleavage kobs at 2500 uM GlcN6P (glucosamine-6-phosphate [2]) [s⁻¹],self-cleavage kobs at 10000 uM GlcN6P (glucosamine-6-phosphate [3]) [s⁻¹]
A6C C8G C11A A52C U57G G63C U69G,0.0016 ± 0.00077,–,–
C10A G38A G40U C50G G51U,< 1e-05,< 1e-05,–
C8A G43C C61A,< 1e-05,–,–
G7C G40U,< 1e-05,< 1e-05,< 1e-05
C58A G60U,< 1e-05,< 1e-05,< 1e-05
A12C A14U C16G G35C G62U,< 1e-05,–,–
A12G A15U U45C G59A,< 1e-05,< 1e-05,–
G13C C16U A36G U69C,< 1e-05,–,–
C8A G13A G37U G59C C68G,0.000781 ± 0.00025,–,–
G32U A39G C71U,0.000114 ± 3.4e-05,0.00038 ± 0.0001,–
C34G U65G,< 1e-05,< 1e-05,< 1e-05
G60C C68G C70U,< 1e-05,< 1e-05,–
A12C G38U C67U,< 1e-05,–,–
G9U A15U A42G G63C U69G,< 1e-05,< 1e-05,–
G29C U56C,0.000147 ± 3.2e-05,0.000116 ± 2.1e-05,0.00068 ± 0.00019
C11A G38U U47A,< 1e-05,–,–
A15U A39C A42U,< 1e-05,–,–
G9C C67G C68U,< 1e-05,< 1e-05,–
U55G G63U,< 1e-05,< 1e-05,–
G29A G37A,0.000124 ± 3.6e-05,0.000156 ± 5.7e-05,–
